Experimental data as given in US20210221875A1 (Chugai, published 2021).
Where a chain is given by its changes, count along the chain named.

Legend:
[1] = target: T1, Human aggrecan G1-IGD-G2 domain with Flag-tag on its C-terminus (human, UniProt P16112 17-675); assay: SPR (Biacore), 37 C, as in Example 20
T1 construct: used unlabelled as Biacore analyte; also called human aggrecan G1-IGD-G2-Flag; human Aggrecan G1G2 flag
Procedure: (§1) The binding affinity of the antibodies at pH 7.4 was determined at 37 degrees C. using Biacore T200 instrument (GE Healthcare). Recombinant Protein A/G (Pierce) was immobilized onto all flow cells of a CM4 sensor chip using amine coupling kit (GE Healthcare). Antibodies and analytes were prepared in buffer (20 mM Sodium Phosphate, 150 mM NaCl, 0.05% Tween 20, 0.005% NaN₃, pH 7.4). Each antibody was captured onto the sensor surface by protein A/G. Antibody capture levels were aimed at 200 resonance unit (RU). […] Sensor surface was regenerated each cycle with 10 mM Glycine-HCl pH 1.5.

[2] = target: T2, biotin-rabbit aggrecan G1-IGD-G2-3xFlag (rabbit, UniProt Q28670 17-683, biotin on the N-terminal Avi-tag (BirA co-expression)); assay: SPR (Biacore), 37 C, as in Example 20
T2 construct: three tandem Flag-tags at the C-terminus and Avi-tag at the N-terminus; also called biotinylated Avi-rabbit aggrecan G1-IGD-G2-3xFLAG; Avi RbG1G2 3FLAG
Procedure: as §1

soluble human IL-6R [3] = target: T3, soluble human IL-6R (human, UniProt P08887 20-357); assay: BLI (Octet), in the same way as in Example 3, 30 C or 25 C
T3 construct: also called hsIL-6R; recombinant human IL6R
T3 sequence: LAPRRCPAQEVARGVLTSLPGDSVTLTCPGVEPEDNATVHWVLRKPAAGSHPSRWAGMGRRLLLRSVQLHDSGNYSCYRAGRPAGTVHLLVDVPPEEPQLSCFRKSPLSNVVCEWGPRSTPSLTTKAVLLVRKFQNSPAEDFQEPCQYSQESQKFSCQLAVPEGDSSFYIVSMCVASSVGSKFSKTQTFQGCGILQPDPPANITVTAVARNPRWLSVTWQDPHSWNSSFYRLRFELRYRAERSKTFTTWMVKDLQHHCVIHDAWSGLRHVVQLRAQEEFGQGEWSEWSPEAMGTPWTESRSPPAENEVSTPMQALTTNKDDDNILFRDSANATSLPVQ

soluble human IL-6R [4] = target: T3, soluble human IL-6R; assay: BLI (Octet), in the same way as in Example 3
[5] = target: T1, Human aggrecan G1-IGD-G2 domain with …; assay: SPR (Biacore T200), 37 C, pH 7.4, antibody captured by protein A/G, 1:1 model
Procedure: as §1

[6] = target: T2, biotin-rabbit aggrecan G1-IGD-G2-3xFlag; assay: as above
Procedure: as §1

[7] = target: T2, biotin-rabbit aggrecan G1-IGD-G2-3xFlag; assay: SPR (Biacore T200), 37 C, pH 7.4, antibody captured, Avi RbG1G2 3Flag as analyte, 1:1 model;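 further: antibodies captured at roughly 200 RU on a CM4 or C1 chip through anti-human IgG Fc or Protein A/G, in sodium phosphate NaCl buffer with Tween 20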
Procedure: (§2) Anti-Human IgG (Fc) antibody was immobilized onto all flow cells of a CM4 sensor chip using Human antibody capture kit (GE Healthcare). Protein A/G was immobilized onto all flow cells of a CM4 or C1 sensor chip using amine coupling kit (GE Healthcare). Antibodies and analytes were prepared in buffer (50 mM Sodium Phosphate, 150 mM NaCl, 0.02% Tween 20, 0.005% NaN3, pH 7.4 or 20 mM Sodium Phosphate, 150 mM NaCl, 0.05% Tween20, 0.005% NaN₃, pH 7.4). Each antibody was captured onto the sensor surface by Anti-Human IgG (Fc) antibody or Protein A/G. Antibody capture levels were aimed at 200 resonance unit (RU). […] Sensor surface was regenerated each cycle with 3 M MgCl₂ or 10 mM Glycine-HCl, pH 1.5.

[8] = target: T2, biotin-rabbit aggrecan G1-IGD-G2-3xFlag; assay: SPR (Biacore T200), 37 C, pH 7.4, antibody captured, Avi RbG1G2 3Flag as analyte, 1:1 model; second row with this name
Procedure: as §2

[9] = target: T1, Human aggrecan G1-IGD-G2 domain with …; assay: SPR (Biacore T200), 37 C, pH 7.4, antibody captured by protein A/G, 1:1 model; footnote: fitting was not good due to bi-phasic interaction
Procedure: as §1

[10] = target: T2, biotin-rabbit aggrecan G1-IGD-G2-3xFlag; assay: as above
Procedure: as §1

soluble human IL-6R [11] = target: T3, soluble human IL-6R; assay: BLI (Octet HTX), molecule on Protein A sensor, hsIL-6R as analyte, 30 C
Procedure: The hsIL-6R binding evaluation of each molecule was conducted using Octet HTX (Pall ForteBio Corp.).

B1: GRA0124ccAE02-rbIgG (antibody)
heavy: QSVEESGGRLVTPGTPLTLTCTVSGVDLSNYAIHWVRQAPGKGLEWIGMIRSNGMRYYGTWAKGRFTTSKTSSTTVDLKMTSPTTEDTATYFCARLWNIWGPGTLVTVSSGQPKAPSVFPLAPCCGDTPSSTVTLGCLVKGYLPEPVTVTWNSGTLTNGVRTFPSVRQSSGLYSLSSVVSVTSSSQPVTCNVAHPATNTKVDKTVAPSTCSKPMCPPPELLGGPSVFIFPPKPKDTLMISRTPEVTCVVVDVSQDDPEVQFTWYINNEQVRTARPPLREQQFNSTIRVVSTLPIAHQDWLRGKEFKCKVHNKALPAPIEKTISKARGQPLEPKVYTMGPPREELSSRSVSLTCMINGFYPSDISVEWEKNGKAEDNYKTTPTVLDSDGSYFLYSKLSVPTSEWQRGDVFTCSVMHEALHNHYTQKSISRSPGK
light: QVLTQTPSSTSVAVGGTVTINCQSSPSVYLNLLAWYQQKPGQPPKLLIYSASFLQSGVPPRFSGSGSGTQFTLTISGVQCADAATYYCAGVYSNNIYTFGGGTKVEIKRDPVAPTVLIFPPAADQVATGTVTIVCVANKYFPDVTVTWEVDGTTQTTGIENSKTPQNSADCTYNLSSTLTLTSTQYNSHKEYTCKVTQGTTSVVQSFNRGDC
notes: also called GRA0124ccAE02-rIgG
With B1 the Kd [1] was 553 nM, the koff [1] was 0.0108 s⁻¹ and the kon [1] was 19500 M⁻¹ s⁻¹. The Kd [2] was 16.4 nM, the koff [2] was 0.000333 s⁻¹ and the kon [2] was 20400 M⁻¹ s⁻¹.

B2: 20A11hu-G1m/VK1-39-k0MT (antibody, human IgG1, kappa, V domains shown)
VH: EVQLVESGGGLVQPGGSLRLSCAASGSVFKINVMAWVRQAPGKGLEWVAGIISGGSTSYADSVKGRFTISRDNAKNTLYLQMNSLRPEDTAVYYCAFITTESDYDLGRRYWGQGTLVTVSS
VL: DIQMTQSPSSLSASVGDRVTITCRASQSISSYLNWYQQKPGKAPKLLIYAASSLQSGVPSRFSGSGSGTDFTLTISSLQPEDFATYYCLQFDSYPLTFGGGTKVEIKR
notes: IgG antibody-like molecule
B2: no binding (soluble human IL-6R [3]).

B3: 20A11-G1m/VL3-21-lamL (antibody, human IgG1, lambda, V domains shown)
VH: B2 VH with V37Y, L45R, W47L
VL: SYVLTQPPSVSVAPGKTARITCGGNNIGSKSVHWYQQKPGQAPVLVIYYDSDRPSGIPERFSGSNSGNTATLTISRVEAGDEADYYCQAWDSSTDVVFGGGTKLTVLG
notes: IgG antibody-like molecule with VHH 20A11 in place of VH
B3: binds (soluble human IL-6R [4]).

B4: 20A11hu-G1m/VL1-44-lamL (antibody, human IgG1, lambda, V domains shown)
VH: B2 VH
VL: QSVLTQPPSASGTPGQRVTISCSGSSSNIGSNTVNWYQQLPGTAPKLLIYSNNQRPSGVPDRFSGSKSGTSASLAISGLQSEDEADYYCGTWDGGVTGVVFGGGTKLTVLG
notes: IgG antibody-like molecule with VHH 20A11hu in place of VH
B4: no binding (soluble human IL-6R [3]).

B5: 20A11hu-G1m/VL2-14-lamL (antibody, human IgG1, lambda, V domains shown)
VH: B2 VH
VL: QSALTQPASVSGSPGQSITISCTGTSSDVGGYNYVSWYQQHPGKAPKLMIYEVSNRPSGVSNRFSGSKSGNTASLTISGLQAEDEADYYCSSYRSGYTLVVFGGGTKLTVLG
notes: as for B4
B5: no binding (soluble human IL-6R [3]).

B6: 20A11hu-G1m/VK2-28-k0MT (antibody, human IgG1, kappa, V domains shown)
VH: B2 VH
VL: not shown
notes: as for B4
B6: no binding (soluble human IL-6R [3]).

B7: 20A11hu-G1m/VL1-40-lamL (antibody, human IgG1, lambda, V domains shown)
VH: B2 VH
VL: QSVLTQPPSVSGAPGQRVTISCTGSSSNIGAGYDVHWYQQLPGTAPKLLIYGNSNRPSGVPDRFSGSKSGTSASLAITGLQAEDEADYYCQSYDNSLNAVVFGGGTKLTVLG
notes: as for B4
B7: no binding (soluble human IL-6R [3]).

B8: GRA1013hq-rIgG (antibody)
heavy: EVKLMESGGGLVKPGGSLKLSCAASGFTFSSYAMSWVRQTPEKRLEWVTSISSGGTTYYPDSVKGRFTISRDNARNILFLQMSSLRSEDTAMYYCARGPHWYLDVWGAGTSVTVSSSTKGGQPKAPSVFPLAPCCGDTPSSTVTLGCLVKGYLPEPVTVTWNSGTLTNGVRTFPSVRQSSGLYSLSSVVSVTSSSQPVTCNVAHPATNTKVDKTVAPSTCSKPMCPPPELLGGPSVFIFPPKPKDTLMISRTPEVTCVVVDVSQDDPEVQFTWYINNEQVRTARPPLREQQFNSTIRVVSTLPIAHQDWLRGKEFKCKVHNKALPAPIEKTISKARGQPLEPKVYTMGPPREELSSRSVSLTCMINGFYPSDISVEWEKNGKAEDNYKTTPTVLDSDGSYFLYSKLSVPTSEWQRGDVFTCSVMHEALHNHYTQKSISRSPGK
light: DILMTQTPLSLPVSLGDQASISCRSSQSIVHSNGNTYLEWYLQKPGQSPKLLIYKVSNRFSGVPDRFSGSGSGTDFTLKISRVEAEDLGVYYCFQGSHLPLTFGAGTKLELKRTVAARDPVAPTVLIFPPAADQVATGTVTIVCVANKYFPDVTVTWEVDGTTQTTGIENSKTPQNSADSTYNLSSTLTLTSTQYNSHKEYTCKVTQGTTSVVQSFNRGDC
notes: anti-aggrecan antibody from mouse B cells, rabbit constant regions rbIgG / rbIgK2
In the case of B8, the Kd [5] is reported as 1540 nM, the koff [5] is reported as 0.0406 s⁻¹ and the kon [5] is reported as 26300 M⁻¹ s⁻¹. It also gave a Kd [6] of 459 nM, a koff [6] of 0.00973 s⁻¹ and a kon [6] of 21200 M⁻¹ s⁻¹.

B9: GRA0124Hc0626-SG1/GRA0124Lc0544-SK2 (antibody, human IgG1, kappa)
heavy: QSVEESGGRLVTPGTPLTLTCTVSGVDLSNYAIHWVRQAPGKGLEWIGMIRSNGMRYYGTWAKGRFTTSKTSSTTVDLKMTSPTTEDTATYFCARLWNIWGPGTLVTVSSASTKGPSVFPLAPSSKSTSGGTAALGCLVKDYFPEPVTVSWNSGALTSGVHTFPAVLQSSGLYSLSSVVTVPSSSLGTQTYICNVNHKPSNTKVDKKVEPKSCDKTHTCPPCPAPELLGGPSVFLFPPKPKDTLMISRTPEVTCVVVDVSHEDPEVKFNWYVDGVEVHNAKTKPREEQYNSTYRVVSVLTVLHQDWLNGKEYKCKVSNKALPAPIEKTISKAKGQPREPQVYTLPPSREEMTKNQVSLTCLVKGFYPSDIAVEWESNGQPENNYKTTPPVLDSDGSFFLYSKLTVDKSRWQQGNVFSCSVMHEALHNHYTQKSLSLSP
light: AQVLTQTPSSTSVAVGGTVTINCQSSPSVYLNLLAWYQQKPGQPPKLLIYSASFLQSGVPPRFSGSGSGTQFTLTISGVQCADAATYYCAGVYSNNIYTFGGGTKVEIKRTVAAPSVFIFPPSDEQLKSGTASVVCLLNNFYPREAKVQWKVDNALQSGNSQESVTEQDSKDCTYSLSSTLTLSKADYEKHKVYACEVTHQGLSSPVTKSFNRGEC
notes: also called GRA0124ccAE02-SG1; GRA124ccAE02-SG1
In the case of B9, the Kd [7] is reported as 15.6 nM, the koff [7] is reported as 0.000838 s⁻¹ and the kon [7] is reported as 53900 M⁻¹ s⁻¹. It also gave a Kd [8] of 4.07 nM, a koff [8] of 0.000341 s⁻¹ and a kon [8] of 83800 M⁻¹ s⁻¹.

B10: GRA0105gg-rbIgG (antibody)
heavy: QSLEESGGGLVTPGTPLTLTCTVSGLSLSNSVMSWVRQAPGKGLEWIGFISIHDETNYATWAKGRFTISKTSSTTVDLKMTSPTTDDTATYFCARDGDSHGFYFGLWGPGTLVTVSSGQPKAPSVFPLAPCCGDTPSSTVTLGCLVKGYLPEPVTVTWNSGTLTNGVRTFPSVRQSSGLYSLSSVVSVTSSSQPVTCNVAHPATNTKVDKTVAPSTCSKPMCPPPELLGGPSVFIFPPKPKDTLMISRTPEVTCVVVDVSQDDPEVQFTWYINNEQVRTARPPLREQQFNSTIRVVSTLPIAHQDWLRGKEFKCKVHNKALPAPIEKTISKARGQPLEPKVYTMGPPREELSSRSVSLTCMINGFYPSDISVEWEKNGKAEDNYKTTPTVLDSDGSYFLYSKLSVPTSEWQRGDVFTCSVMHEALHNHYTQKSISRSPGK
light: QVLTQTPSPVSAAVGGTVTINCQASQSVYNKNNLAWYQQKPGQPPKLLIYDASKLASGVPSRFKGGGSGTHFTLTISGVQCDDAATYYCQGTYYSSGWYNTFGGGTKVEIKRDPVAPTVLIFPPAADQVATGTVTIVCVANKYFPDVTVTWEVDGTTQTTGIENSKTPQNSADCTYNLSSTLTLTSTQYNSHKEYTCKVTQGTTSVVQSFNRGDC
notes: anti-aggrecan antibody, rabbit constant regions rbIgG / rbIgK
Work on B10 yielded a Kd [9] of 3.16 nM, a koff [9] of 0.000287 s⁻¹ and a kon [9] of 91100 M⁻¹ s⁻¹. The Kd [10] was 4.42 nM, the koff [10] was 0.000255 s⁻¹ and the kon [10] was 57700 M⁻¹ s⁻¹.

B11: IL6R90-G1m/VK2-28-k0MT (antibody, human IgG1, kappa, V domains shown)
VH: EVQLVESGGGLVQPGGSLRLSCAASGFTFDDYGMSWVRQAPGKALEWVSAISWNGNNTYYTESMKGRFTISRDNAKNTLYLQMNSLRPEDTAVYYCVKGSTAIVGVPPTYPDEYDYWGQGTLVTVSS
VL: not shown
notes: IgG antibody-like molecule with VHH IL6R90 in place of VH
B11: no binding (soluble human IL-6R [11]).

B12: IL6R90-G1m/VL1-44-lamL (antibody, human IgG1, lambda, V domains shown)
VH: B11 VH
VL: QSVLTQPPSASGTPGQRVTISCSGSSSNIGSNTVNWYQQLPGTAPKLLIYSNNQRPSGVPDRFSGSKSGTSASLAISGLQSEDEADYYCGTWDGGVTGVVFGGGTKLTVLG
notes: as for B11
B12: no binding (soluble human IL-6R [11]).

B13: IL6R90-G1m/VL2-14-lamL (antibody, human IgG1, lambda, V domains shown)
VH: B11 VH
VL: B5 VL
notes: as for B11
B13: no binding (soluble human IL-6R [11]).

B14: IL6R90-G1m/VL1-40-lamL (antibody, human IgG1, lambda, V domains shown)
VH: B11 VH
VL: B7 VL
notes: as for B11
B14: no binding (soluble human IL-6R [11]).
